The source of these data is the DeepSol protein solubility set.

The data set in a line: soluble on expression in E. coli; label from the status in PepcDB or PDB records.
As for “MSLIPVVLSGGAGTRLWPVSREGQPKPFMRLPDGQTLLGKTYRRAAGLLAGHGEIVTVTNREHYFQSKDQFHAARLGRHRGHFILEPTGRNTAPAIAVAALGLQAEHGDAAVLVVMPADHLIRNEEAFREAVGHAARLAVAGHLVTFGVVPDAAETGFGYIELGDRLDEQGAAKVRRFVEKPDEETRRRYVESGGFLWNSGMFCFTASTLVDELAQHAPALLEQARACLAASAAVKMADGIQHELAGEGFAALPDISIDYALMERSARVAVVPAAFDWSDIGSWGAMSALLDADAEGNRGSGDTLFVDTRNTFVQSDGRLVATVGVDDLVVVDTSDALLIARADRVQEVRRVVQRLKDERHEAYRLHRTVNRPWGSYTVLEEGPRFKIKRIVVRPGERLSLQMHHHRSEHWIVVQGMARVTNGDGARLVNSNESTYIPAGHRHRLENPGVIDLVMIEVQSGEYLGEDDIVRFEDQYGREGHHHHHH”, the “soluble on expression in E. coli” value is listed as “not soluble”. The same measure for “MSLIQQQPIKPLANSQVCCSDFSQYPWIQLATTEDINFQLDKDSPIGHFSDGNSYFNAFKFAERSGKVQLRLSSLMINDSVAAPKLIALDHEFNVVSTTSLDQFDVKPSDAFTRTQFQLNFQLNAAKTPYFIIYSSNEYLGQSIKVKHPARIRAEELGEPMPMVTDPTYAYERFGKLKLSIKTLSLQADKQADQQPKVAIKSAQPETHTFYKEAIVEAVKTNDIPKALALLEEAKSLGIQDAQDTFVQALESQKEGHHHHHH”: “soluble”; for “MSLITCKFKNLGNLHAGGCGYIPLSSTREERVKNGSRVVSTALLSSYHKGIAFVIFPSHHHTPTRPPSPKPSGSGGYLLNLRRRDPPQAFLSGCPPLPPRGSVLLGCTPPRTQFFVFHVVSYPLVLQKLLQTRDQKSIGSNSSCDTSEMSDCWQVTLSI”: “not soluble”. The same measure for “MSLITLYHCHGARSFRPLWMLEEMGLDYELKMLPFPPRVFAKEYLAINPLGTIPFMIDGDTKMTESSGICQYLGTRHGPTPLVVGVDDPAYGAYLNWMFFSDATLTFPQTLVLRYGTLEPNERRQPQVVEDYAKWFLGRLRAVEVAAGQGDYLCAGRFTAADVVNGYALRLASNLGLAKDFGPNVTAYWARLQQRDGYQRALEAETRAGEAQQVPKRAEGHHHHHH”: “soluble”; for “MSLIYQIAKEFDFCYGHRVWSQELNPDFSLDPCLSCRHLHGHQGKVIVHLESRELQRGMVTDFAHLNWFKRFIDEVLDHRFIIDIDDPLFPTLLPHFADKSALVWMEEGYARVDFERIKGESSPILELYESFVVVRFVPTSESIASWLLELLRSRIQPLGVKVSSVEFLETPKSRARVYNEGHHHHHH”: “soluble”. The result for “MSLKAKAAFFDIDGTLYREGLISEVFKKLIKYEIIDEEKWYKEVRPEFEKWDNRKGDYDDYLLKMTEIYVDALNGLSKSQVEFIASQVVNQKGERVYTYTRDRIKWHKERGHKIITISGSPIELVRNMAEKYGFDDYRGAEYLLDENDVYTGEVIPMWDSKSKERAVHELEAKYNIDLGESYAYGDTSGDLTMLKMVGNPVCINPTKELVKEILSDEEVKNKIRIIVERKDMIYKISSRCLECDCEFVLEGHHHHHH” reads “soluble”.

“MSLKALDEPPYLTVGTDVSAKYRGAFCEAKIKTAKRLVKVKVTFRHDSSTVEVQDDHIKGPMKVGAIVEVKNLDGAYQEAVINKLTDASWYTVVFDDGDEKTLRRSSLCLKGERHFAESETLDQLPLTNPEHFGTPVIGKKTNRGRRSNHIPEEESSSSSSDEDEDDRKQIDELLGKVVCVDYISLDKKKALWFPALVVCPDCSDEIAVKKDNIMVRSFKDGKFTSVPRKDVHEITSDTAPKPDAVLKQAFEQALEFHKSRTIPANWKTELKEDSSSSEAEEEEEEEDDEKEKEDNSSEEEEEIEPFPEERENFLQQLYKFMEDRGTPINKRPVLGYRNLNLFKLFRLVHKLGGFDNIESGAVWKQVYQDLGIPVLNSAAGYNVKCAYKKYLYGFEEYCRSANIEFQMALPEKVVNKQCKECENVKEIKVKEENETEIKEIKMEEERNIIPREGHHHHHH”: the “soluble on expression in E. coli” value is “soluble”.

Take “MSLKALINGTIYTSFNPLKKVSGLVISHGKVIYAGDSEVAKKIVELSGGEIVDLKGKYVMPAFFDSHLHLDELGMSLEMVDLRGAKSIEELIQRLKRGKGRIIFGFGWDQDELGEWPTRKELNAIDKPVFIYRKCFHVAVANDKMLELLNLTPSKDFDEDTGIIKEKSLEEARKVINERVLTVEDYVYYIKRAQEHLLDLGVKSVSFMSVNEKALRALFYLEREGKLSINVFAYVTPEVLDKLESIGLGRFQGNRLTIAGVKLFTDGSLGARTALLSKPYSDDPSTSGQLVMEREELIRITEKARSLGLDVAIHAIGDKALDVALDVFETTGFPGRIEHASLVRDDQLERVKNLKVRLSVQPHFIISDWWIVERVGEERVKWVYRFKDLMKVAELGFSTDSPIEPADPWLTVDAAVNRGKGKVKLYELTKDQALDIKDALHSYTYGSARVSLASDIGKLEPGFKAEYIILDRDPLVVKEGHHHHHH”: the “soluble on expression in E. coli” value is listed as “soluble”. The same measure for “MSLKDSEVTVLGAGVAGLAVARALALRGAEVTVLEQAEAIREVGAGLQISPNGAAVLRALGLGDALEAASMRAQAVELRNGVGGDLVLKLDLARLRPGQGYHLMHRADLIDLLAQGAREAGVQIRLLQKIEAVDLGGPRPRLVTAQGAEYAPNLLIGADGLHSLVRAELNGPAQPFFTNQVAWRTVIPATPGEPVVAEVHMGEGRHLVSYPMRGGTVRNIVAVEERKRWVQEGWNLRDDPVDLRLAFAGFNGRVRHWLEQVPDVWLWGLFRHPVAHTWYRGHAAILGDAAHPTLPFLAQGANMALEDAWVLAECLARHSNIKGGLADYQARRVPRCCRVVQAANNNAWAYHLRSPIREIAHLGLRLGSRLLPGPTLRRFDWLYGYDVTAASLEHHHHHH”: “soluble”; for “MSLKEELQLKQKLGGQKMVIQGDTLENSARRLLQERGVTMNDLAELVLFLQKDYIDNLTLDTCLESVDAVLTKREVHNAIITGVQLDILAEENKLLSPLQEILTEDEGLYGIDEIMALSIVNVYGSIGFTNYGYIDKVKPGILKELNAHDGEHVHTFLDDIVGAIAAAAASRLAHSQPDLSDITKEGGSHHHHHH”: “soluble”.

Turning to “MSLKFSAKLVDDPSIEKSSSAIRLMCLSDTHGVHNNINKNTIFPADILLFAGDMTLFGNPEHAESFKNFITSLPVQHKVIISGNLDLPFDLKNYSHFTEWFSKFSYKNGPESIKTTFTEDQDIIYLEHQAVTIENVKIFGSPFTPAFGDFGFPTTKDTASKLWEQVPEDTDVILCHGPPHNICDMTSTGFHAGCPELRKSVERVKPAAVVFGHIHEAHGNTMIGNTLCCNVAIVNSNRDVAYGPTYIDLIQEGHHHHHH”, the “soluble on expression in E. coli” value is recorded as “soluble”.

Turning to “MSLKFVGIVGSNAEQSYNRMLLEFIRKNFKTKFELEVLEIDDIPMFNQDQNWEESFQLRLLNNKITRADGVIIATPEHNHTITAALKSVLEWLSFAVHPLENKPVMIVGASYYDQGTSRAQIHLRKILDAPGVNAYTLPGNEFLLGKAKEAFDDNGNIINPGTVQFLETCLDNFIKYVGVVSSLRKPKAIESEDLYCQGQIDTTITGIDPDDPDWLDKAAEKVNAVEGDAYVKLDNGLLTVNQLNMFLNAMPFELTYADDNNQFLYYNNNHPDPDTMLGKRVREQVGNRMATVHGSLPPARMKNVEWVIGTLRNGNQEYVRTVVPGTPPEVINTHNYQAMYYPDGSYAGINEIIFNFKPWLDWYLQTTGQRLVGGTTAAPGASAVDATSSASTSTGDAPVDQATDATSGASEHEGHHHHHH”, the “soluble on expression in E. coli” value is reported as “soluble”. The result for “MSLKGDDIEEGKELVATHIAEGLYHDGKFVGYVKRAHDVDVNLNAHTMFENLVVKASGVLSAIQMLRHSKIDPAEIDYVIECSEEACGDINQRGGGNFAKSIAEIAGLQNATGSDTRGFCAAPTHALIQAAALVKAGIHKNVMVVAGGASAKLGMNAKDHVKKGLPVLEDVVGGFAVLVSENDGVNPVIRTDLTGKHTVGTGSSPQAVMTALITSGLDRANLKITDVDVYSVEMQNPDITKPAGAGDVPEANYKMIGALAVKRGDLEKKELKDFVSNKGLPGWAPTQGHIPSGAPYIGFLIDDLTTGNRNRAMIVGKGSLFLGRMTNLFDGVSFIAERNTGVTEETSGISKDEIKKIIAESMKKLALDMLEEGHHHHHH” reads “not soluble”; that for “MSLKGKITLFFTALCFGLTGCIAPPKGLEKERFSINSYREISPQDLTCHCKTVRLGGKIVNTTVLANQTKIEVLSLPVSSISAKPFVELQSDGRFIVYFNGFVEPENLKERYITVGGQLAGTEKGKIEQADYTYPVVQADKYRIWTLSTTYDYPTDDWDEDDDWGFFRWRHRLWYVQPEIHYYLNEGGSHHHHHH”, “soluble”; that for “MSLKHRIEYAITNAVFVKADELSYLSFRVSGKVIEVYKDLGDYVKRGEALAKLDPTYYELEKRTLEKKMSALLEKKKALEIKIQKLEKGLHISLSAKKLKVESLKKKREALREKLLQVEEKIKLVKLDWERYKSLFQKGLIPRRKFEEVDTNLKVLLHEREYLEKSIQEINTEIKRAKKGIENARNEFKTIEELKKELSSLEEEIKSLKERIKTAEQKIKDTVLIAPFDGVVAKRFISRGDVVRAGQPAFALVNPESFYVEVLLEETKLKGVKVGNKAYVRLDAYPDILFEGVVEEISPASAATFALVPRDVSAGEFTKVVQRIPVKIKITKGDLSLLRVGMGGEVEIRRTREGHHHHHH”, “soluble”. The same measure for “MSLKIEPCLPMKILIVEDDPLMQLGLEQALGAHERFEIIGRVDNGYGAVQQAAVLNPDLIVMDIGLPGLDGIEATKQIKQTSPQIHIVVLTSHTLPNEIIAALSSGADAYCVKGATLERLILAIAAAQDGATYLDPQIARVVVENLKPPVPEGQADVSSLSEREIDVLKLIVEGKSNQEIAQTLYLSTNTIKTHVRGIMNKLSVDDRVQAAVIALRSGLVEGHHHHHH”: “soluble”.

On to “MSLKIEPKIFDELKTALVSFGDKYFVGEELNRSKLADDLRNYDEALLSKLFEVDFIMQHFVKEVAGQKLFQIEQLEEAVLYNDYWDTSYTKYENRVGLASKGKFLQDSQDVVLDFPFKDCVLTASMTKENNEEGYDDAFLNEVIEKDEIDRLFDKKVFVNVKRFGDNQGAQHSTAVDNEIVSFDKEKDNLIIKGNNLLALHALKNEFAGKVRQIYIDPPYNTGKDSFNYNDKFNHSSWLVFMKNRLEIAWELLSDDGTIWISIDGYESHYLKVLADGIFGAENFLDEVVWQRAYAPINLKKTFSKSHDYILVYAKNNSGAKELNRLPRKAEMVASYKNPDNDPRGVYKADNFSVGPAVEKNIYEITTPSGRKVLPPDGYSWRFSKERFEELLADNRVYFGKDGNSAPSYKRFLSEVKDGVVAQTLWTYQEVGHNQDAKKEIKSLFDGQTAFGTPKPEKLIQRILTLGSDENDLVLDFFMGSATTQAVAMKMNRRFIGIEQMDYISTVSVPRLQKVIEGEQGGISKDVNWQGGGSFVYAELFPKNMGYLQDVIHAKDLEELKSVYERMLSGTDTDEPADISFRADLSKIDWLQGFDENKRLLVKLLDKNGLYYNYSEIDDKNVRDLISDEDYTFNKNFYEGGEGHHHHHH”, for which the “soluble on expression in E. coli” value is given as “soluble”. The result for “MSLKITDVDVWVVNLPLVNPFTSSFETKTGETRTVVRVRTDSGVEGWGETMWGAPVAAIVRRMAPDLIGTSPFALEAFHRKQHMVPFFYGYLGYAAIAAVDVACWDAMGKATGQSVTDLLGGAVRDEVPITALITRADAPGATPADLPKAMAEHAVRVVEEGGFDAVKLKGTTDCAGDVAILRAVREALPGVNLRVDPNAAWSVPDSVRAGIALEELDLEYLEDPCVGIEGMAQVKAKVRIPLCTNMCVVRFEDFAPAMRLNAVDVIHGDVYKWGGIAATKALAAHCETFGLGMNLHSGGELGIATAAHLAVVSSTPVLSRAIDSMYYLHADDIIEPLHLENGRLRVPSGPGLGVSVDEDKLRHYAGVNERDGDLTGEGHHHHHH” reads “soluble”.
